Where no end group is shown, it is not given here. [ ]: non-standard residue; d: D form.

T1: GIP receptor (human, UniProt P48546 22-466)
T1 sequence (looked up): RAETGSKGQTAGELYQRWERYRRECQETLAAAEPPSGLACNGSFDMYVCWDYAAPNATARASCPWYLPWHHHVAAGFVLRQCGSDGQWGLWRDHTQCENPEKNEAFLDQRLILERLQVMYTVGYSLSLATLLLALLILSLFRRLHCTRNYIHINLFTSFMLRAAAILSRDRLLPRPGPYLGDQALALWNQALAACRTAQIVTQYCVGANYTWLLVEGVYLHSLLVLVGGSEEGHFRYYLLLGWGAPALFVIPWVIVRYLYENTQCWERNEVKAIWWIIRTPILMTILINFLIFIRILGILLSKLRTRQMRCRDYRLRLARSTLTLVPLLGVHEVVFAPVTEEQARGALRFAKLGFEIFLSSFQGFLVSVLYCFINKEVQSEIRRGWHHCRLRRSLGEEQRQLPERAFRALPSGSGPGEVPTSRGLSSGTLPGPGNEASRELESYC

B1: (DAla2)GIP/xenin-8-Gln(L-Glu) (peptide)
peptide: Y[dA]EGTFISDYSIAMHPQQPWILGAAEEEEEE
B2: (DAla2)GIP/xenin-8-Gln (peptide)
peptide: Y[dA]EGTFISDYSIAMHPQQPWIL
B3: (DAla2)GIP/xenin-8-Gln(L-Asp) (peptide)
peptide: Y[dA]EGTFISDYSIAMHPQQPWILGAADDDDDD

The test addresses T1, GIP receptor. As to the kind of experiment: cell-based or functional assay.
For B1, the “cAMP production in SaOS-2 cells, lowest effective concentration” value was 1000 nM. The same measure for B2: 0.1 nM; for B3: 10 nM.
